T1: cleaved, mature CDTb (from limited trypsinization of proCDTb) (Clostridioides difficile)
T1 chain: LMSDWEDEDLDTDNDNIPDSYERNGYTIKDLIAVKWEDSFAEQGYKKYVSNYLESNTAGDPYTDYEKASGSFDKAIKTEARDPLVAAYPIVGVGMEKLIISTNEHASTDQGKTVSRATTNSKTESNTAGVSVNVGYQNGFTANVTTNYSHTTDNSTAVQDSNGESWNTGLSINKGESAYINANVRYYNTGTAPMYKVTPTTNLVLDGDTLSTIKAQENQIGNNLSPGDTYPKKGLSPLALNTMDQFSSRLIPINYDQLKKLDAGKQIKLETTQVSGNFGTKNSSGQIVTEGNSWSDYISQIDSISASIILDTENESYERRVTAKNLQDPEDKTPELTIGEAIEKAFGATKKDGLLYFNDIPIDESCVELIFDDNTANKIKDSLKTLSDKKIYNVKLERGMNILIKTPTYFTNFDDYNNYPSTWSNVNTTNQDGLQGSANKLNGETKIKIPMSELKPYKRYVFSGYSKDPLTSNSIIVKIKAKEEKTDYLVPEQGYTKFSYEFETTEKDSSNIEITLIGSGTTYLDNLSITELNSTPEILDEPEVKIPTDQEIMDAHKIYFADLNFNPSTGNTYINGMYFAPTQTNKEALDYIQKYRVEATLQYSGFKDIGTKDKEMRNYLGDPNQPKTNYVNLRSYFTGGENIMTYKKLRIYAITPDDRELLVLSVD


Key:
[1] = biological target: T2, CDTb D4 fragment, CDTb residues 753 to 876 (Clostridioides difficile, UniProt O32739); assay: crystal structure; details: both partners purified
T2 construct: pET22b construct; source: E. coli BL21(DE3), purified (Ni-NTA, SEC); not shown: His6, C-terminal, kept

[2] = biological target: T1, cleaved, mature CDTb (from limited …); assay: cell-based or functional assay
[3] = biological target: T3, CDTb protoxin (proCDTb), CDTb residues 43 to 876 (Clostridioides difficile, UniProt O32739); assay: SPR; proCDTb with C-terminal 6xHis immobilised (~200 RU) on NTA chip, Biacore X100; Fab flowed at 0.1-25 nM; 10 mM HEPES pH 8.0, 150 mM NaCl, 6 mM CaCl2, 0.05% Tween 20; association 180 s, dissociation 600 s; 1:1 binding model; details: both partners purified
T3 construct: pET24b construct for biophysical and structural studies; A different construct (pGEX-6p1, GST cleaved, C-terminal 6xHis) was used for immunisation and the neutralisation assay; also called proCTDb; source: E. coli BL21(DE3), purified (Ni-NTA, anion exchange, SEC); not shown: His6, C-terminal, kept

[4] = biological target: T2, CDTb D4 fragment, CDTb residues 753 to …; assay: BLI; details: both partners purified

Binder	binding result [1]	EC50 of protection of HT29 cells from CDT (CDTa 25 ng/mL + cleaved, monomeric CDTb 75 ng/mL) cytotoxicity, Hoechst-stained surface, BINTOXB/9 IgG; blocks CDTb oligomerization (m7 with m7) [2]	Kd [3]	binding result [4]	EC50 of protection of HT29 cells from CDT (CDTa 25 ng/mL + cleaved, monomeric CDTb 75 ng/mL) cytotoxicity, Hoechst-stained surface, BINTOXB/22 IgG; blocks CDTb oligomerization (m7 with m7) [2]
BINTOXB/9 Fab (Fab, V domains shown) VH: QVQLQQSGAELARPGASVKMSCKASGYTFTSYTMHWVKQRPGQGLEWIGYINPSNDYTSYNQKFKDKATLTADKSSSTAYMQLSSLTSEDSAVYYCARCWGYDPYYFDYWGQGTTLTVSS VL: DIVMSQSPSLLAVSAGEKVTMSCKSSQSLLNSRTRKNYLAWYQQKPGQSPKVLIYWASTRESGVPDRFTGSGSGTDFTLTISSVQAEDLAVYYCKQSYNLLTFGAGTKLELK	binds	13 µg/mL	0.73 nM	–	–
BINTOXB/22 Fab (Fab, V domains shown) VH: QIQLVQSGPELKKPGETVKISCKASGYTFTNYGMNWVKQAPGKDLKWMGWMSTYTGEPTYADDFKGRFAFSLETSASTAYLQINNLKNEDMATYFCARRGNYLSFDYWGQGTTLTVSS VL: DIVMTQSHKFMSTSVGDRVSITCKASQDVSTAVGWYQQKPGQSPKLLIYSASYRYTGVPDRFTGSGSGTDFTFTISSVQAEDLAVYYCQQHYSPPFTFGSGTELEIK	–	–	16.3 nM	no binding (tested: 200 nM)	21 µg/mL

Reference: PMC10127577 (Journal of Bacteriology, 2023)
